Data reported in paper PMC1282572, “Avidin related protein 2 shows unique structural and functional features among the avidin protein family” (BMC Biotechnology, 2005).
Where a chain is given by its changes, count along the chain named. Names and notes keep the numbering of the source.

B1: AVR4 (carries C122S), produced in insect cells (natural protein, chicken, UniProt P56734 25-150, looked up)
chain: ARKCSLTGKWTNNLGSIMTIRAVNSRGEFTGTYLTAVADNPGNITLSPLLGIQHKRASQPTFGFTVHWNFSESTTVFTGQCFIDRNGKEVLKTMWLLRSSVNDISYDWKATRVGYNNFTRLSTVEE
notes: avidin related protein 4 (identical to AVR5), chicken, with C122S; also called AVR5 (AVR4 is identical to AVR5)
B2: AVR4(K109I) (also carries C122S), produced in insect cells (natural protein, chicken, UniProt P56734 25-150, looked up)
chain: B1 chain with K109I
notes: avidin related protein 4 (identical to AVR5), chicken, with K109I and C122S; An E. coli form, AVR4(K109I)-b, was also made
B3: AVR6(C58S), produced in E. coli (natural protein, chicken)
chain: QTVARKCSLTGEWDNNLGSIMTIGAVNDNGEFNGTYITAVADNPGNIKLSPLLGIQHKRASQPTFGFTVHWNFSESTSVFVGQCFVDRSGKEVLKTKWLQRLAVDDISDDWKATRVGYNNFTRQRTVEE
notes: checked by ESI-MS on AVR2-b only; avidin related protein 6 (AVR6), chicken, with C58S; also called AVR6-b
B4: AVR2-b (AVR2 produced in E. coli) (natural protein, chicken)
chain: B3 chain with N16D, N33D, K48T, K112I, Y118N, N120D, R125H
notes: three additional residues left at the N-terminus after cleavage of the bacterial OmpA signal peptide; avidin related protein 2 (AVR2), chicken; expected Mr of the product 14307.8 Da; Not glycosylated (bacterial expression); Crystallised in complex with D-biotin
B5: Avidin related protein 2 (AVR2), produced in insect cells (natural protein, chicken, UniProt P56732 25-150, looked up)
chain: ARKCSLTGEWDNDLGSIMTIGAVNDNGEFDGTYITAVADNPGNITLSPLLGIQHKRASQPTFGFTVHWNFSESTSVFVGQCFVDRSGKEVLKTKWLQRLAVDDISDDWIATRVGNNDFTRQHTVEE
modifications: glycosylated (two potential glycosylation sites; both utilized to some extent)
notes: avidin related protein 2 (AVR2), chicken; The crystal structure PDB 1WBI is of the E. coli form AVR2-b
B6: AVR2(I109K) (natural protein, chicken, UniProt P56732 25-150, looked up)
chain: B5 chain with I109K
notes: avidin related protein 2 (AVR2), chicken, with I109K

Target: the molecule itself
Assay: SEC; FPLC gel filtration, Superdex HR 10/30 column, 50 mM NaCO3 (pH 11.0), 150 mM NaCl; calibrated with IgG, BSA and ovalbumin; oligomeric state (tetramer)

Stoichiometry N, 4:
B1
B2
B3
B4
B5
B6
